According to paper PMC5420311 (Nature structural & molecular biology, 2017):

Biological target: phosphoubiquitin (UniProt P0CG48 1-76, phosphorylated by PINK1 (Ser65))
Test: ITC

- binding result: binds
B1: ΔUBL-Parkin (80-465) (domain or fragment)
chain: MNATGGDDPRNAAGGCEREPQSLTRVDLSSSVLPGDSVGLAVILHTDSRKDSPPAGSPAGRSIYNSFYVYCKGPCQRVQPGKLRVQCSTCRQATLTLTQGPSCWDDVLIPNRMSGECQSPHCPGTSAEFFFKCGAHPTSDKETSVALHLIATNSRNITCITCTDVRSPVLVFQCNSRHVICLDCFHLYCVTRLNDRQFVHDPQLGYSLPCVAGCPNSLIKELHHFRILGEEQYNRYQQYGAEECVLQMGGVLCPRPGCGAGLLPEPDQRKVTCEGGNGLGCGFAFCRECKEAYHEGECSAVFEASGTTTQAYRVDERAAEQARWEAASKETIKKTTKPCPRCHVPVEKNGGCMHMKCPQPQCRLEWCWNCGCEWNRVCMGDHWFDV
